Measurements published in US20200262889A1 (B G NEGEV TECHNOLOGIES AND APPLICATIONS LTD AT BEN GURION …, published 2020).

Biological target: T1, mouse OAT-3 (oat3, slc22a8) (mouse, UniProt O88909 1-537)
T1 construct: whole, on cells; Expressed in HEK293T cells; coIP from lysates; not shown: myc-DDK tag of the pCMV6-Entry myc-DDK vector
T1 sequence (looked up): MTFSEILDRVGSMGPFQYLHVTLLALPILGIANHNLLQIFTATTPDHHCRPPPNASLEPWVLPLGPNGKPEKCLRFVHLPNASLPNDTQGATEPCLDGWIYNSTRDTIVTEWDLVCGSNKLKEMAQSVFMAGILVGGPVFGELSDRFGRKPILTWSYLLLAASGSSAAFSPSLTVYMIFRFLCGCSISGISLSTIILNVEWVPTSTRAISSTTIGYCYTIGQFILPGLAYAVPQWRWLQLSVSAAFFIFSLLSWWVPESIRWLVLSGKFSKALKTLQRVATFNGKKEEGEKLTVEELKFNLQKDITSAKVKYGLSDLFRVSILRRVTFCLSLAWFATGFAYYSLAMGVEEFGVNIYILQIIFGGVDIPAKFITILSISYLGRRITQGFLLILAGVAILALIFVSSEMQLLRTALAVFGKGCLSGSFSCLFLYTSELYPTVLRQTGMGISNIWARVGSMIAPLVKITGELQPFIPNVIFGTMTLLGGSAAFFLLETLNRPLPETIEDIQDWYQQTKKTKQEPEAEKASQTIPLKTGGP
Test: coIP from HEK293T cells co-transfected with OAT-3 and IRBIT
From the text: To determine whether IRBIT regulates succinate efflux via interaction with OATs, the interaction of OAT-1 and/or OAT-3 with IRBIT was monitored by coIP. […] Succinate uptake was elevated by expression of OAT-1 alone, that was abolished by the OAT inhibitor probenecid (FIG. 6B-C). Neither IRBIT, SUCNR1 stimulation, nor inhibition of PLC by U73122 affected the OAT-mediated succinate uptake. These findings indicate that OAT-1 activity is IRBIT-independent.

binding result: no binding
B1: IRBIT (IP3 receptor-binding protein released with IP3; S-adenosylhomocysteine hydrolase-like protein) (other)
chain: SMPDAMPLPGVGEELKQAKEIEDAEKYSFMATVTKAPKKQIQFADDMQEFTKFPTKTGRRSLSRSISQSSTDSYSSAASYTDSSDDEVSPREKQQTNSKGSSNFCVKNIKQAEFGRREIEIAEQDMSALISLRKRAQGEKPLAGAKIVGCTHITAQTAVLIETLCALGAQCRWSACNIYSTQNEVAAALAEAGVAVFAWKGESEDDFWWCIDRCVNMDGWQANMILDDGGDLTHWVYKKYPNVFKKIRGIVEESVTGVHRLYQLSKAGKLCVPAMNVNDSVTKQKFDNLYCCRESILDGLKRTTDVMFGGKQVVVCGYGEVGKGCCAALKALGAIVYITEIDPICALQACMDGFRVVKLNEVIRQVDVVITCTGNKNVVTREHLDRMKNSCIVCNMGHSNTEIDVTSLRTPELTWERVRSQVDHVIWPDGKRVVLLAEGRLLNLSCSTVPTFVLSITATTQALALIELYNAPEGRYKQDVYLLPKKMDEYVASLHLPSFDAHLTELTDDQAKYLGLNKNGPFKPNYYRY
notes: The methods say only 'IRBIT in pcDNA3.1(+)'
